Measured values as given in patent US20230399394A1 (SUNSHINE GUOJIAN PHARMACEUTICAL SHANGHAI, published 2023).
Numbering of substitutions follows the chain as printed.

Legend:
[1] = target: T1, IL-33 mutant protein D68A (human, UniProt O95760 112-270); test: ELISA as Example 9; row D68A
T1 construct: Prokaryotic expression
T1 chain: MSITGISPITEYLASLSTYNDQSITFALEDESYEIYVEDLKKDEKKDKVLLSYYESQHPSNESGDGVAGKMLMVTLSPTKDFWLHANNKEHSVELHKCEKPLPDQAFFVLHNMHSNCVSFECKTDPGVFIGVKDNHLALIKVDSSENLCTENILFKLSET
Description: (§1) SA protein was diluted to 2 μg/mL to coat ELISA plate at 100 μL/well overnight at 4° C. The plate was washed with PBST (PBS containing 0.05% Tween20) for 3 times, and blocked with 2% BSA prepared in PBS at 200 μL/well, at room temperature for 2 h. After the plate was washed twice with PBST, IL-33-his-biotin protein was diluted to 1 μg/mL with 1% BSA prepared in PBST, and was added to ELISA plate at 100 μL/well. The plate was incubated at room temperature for 1 h, and each monoclonal antibody was diluted with 1% BSA prepared in PBST in a 3-fold gradient. The highest concentration of antibody was 10 μg/mL, and the antibody was diluted for 12 gradients. Each diluted monoclonal antibody was added to ELISA wells with 100 μL/well, and the plate was incubated at room temperature for 1 h. Each sample was added to duplicate wells in parallel. The plate was washed with PBST for 3 times, and HRP-anti human IgG Fc secondary antibody prepared with PBST was diluted at an appropriate ratio, and was added to ELISA wells at 100 μL/well. […] Each reaction solution was shaken uniformly and OD450 nm was read on a microplate reader. The data was analyzed and EC₅₀ was calculated.
(§2) Subsequently, according to the experimental method of Example 9, the affinity of the above mutant proteins to 874F7-Hu1 was determined, and IL-33 proteins (WT-1, WT-2, WT-3, and WT-4) without any mutation were set as controls.

[2] = target: T2, IL-33 mutant protein S63A (human, UniProt O95760 112-270); test: ELISA as Example 9; row S63A
T2 construct: Prokaryotic expression
T2 chain: T1 chain with S63A, A68D
Description: as §1, §2

[3] = target: T3, IL-33 mutant protein Y53A (human, UniProt O95760 112-270); test: ELISA as Example 9; row Y53A
T3 construct: Prokaryotic expression
T3 chain: T1 chain with Y53A, A68D
Description: as §1, §2

[4] = target: T4, IL-33 mutant protein H58A (human, UniProt O95760 112-270); test: ELISA as Example 9; row H58A against WT-1
T4 construct: Prokaryotic expression
T4 chain: T1 chain with H58A, A68D
Description: as §1, §2

[5] = target: T5, IL-33 mutant protein K45A (human, UniProt O95760 112-270); test: ELISA as Example 9; row K45A against WT-1
T5 construct: Prokaryotic expression
T5 chain: T1 chain with K45A, A68D
Description: as §1, §2

[6] = target: T3, IL-33 mutant protein Y53A; test: ELISA as Example 9; row Y53A against WT-2
Description: as §1, §2

Human IL-33-his = target: T6, Human IL-33-his (human, UniProt O95760 112-270, biotinylated with EZ-Link NHS-Biotin where used as IL-33-his-biotin); test: ELISA as Example 9, IL-33-his-biotin on streptavidin plate
T6 construct: Used plain (SPR, cell assays) and biotinylated (ELISA); also called IL-33-his-biotin
T6 sequence: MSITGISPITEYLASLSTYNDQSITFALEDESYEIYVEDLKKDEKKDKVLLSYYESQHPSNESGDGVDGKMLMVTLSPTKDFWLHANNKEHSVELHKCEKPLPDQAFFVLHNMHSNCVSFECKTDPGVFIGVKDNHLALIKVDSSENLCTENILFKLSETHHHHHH

[7] = target: T7, IL-33 mutant protein S60A (human, UniProt O95760 112-270); test: ELISA by the method of Example 9 with the IL-33 mutant protein on the plate, 874F7-Hu1 in serial dilution, HRP anti-human IgG Fc, absorbance 450 nm
T7 construct: Prokaryotic expression; also called 560A
T7 chain: T1 chain with S60A, A68D

[8] = target: T8, IL-33 mutant protein V49A (human, UniProt O95760 112-270); test: as above
T8 construct: Prokaryotic expression
T8 chain: T1 chain with V49A, A68D

B1: 874F7-Hu1 (antibody, human IgG4 S228P, kappa)
heavy: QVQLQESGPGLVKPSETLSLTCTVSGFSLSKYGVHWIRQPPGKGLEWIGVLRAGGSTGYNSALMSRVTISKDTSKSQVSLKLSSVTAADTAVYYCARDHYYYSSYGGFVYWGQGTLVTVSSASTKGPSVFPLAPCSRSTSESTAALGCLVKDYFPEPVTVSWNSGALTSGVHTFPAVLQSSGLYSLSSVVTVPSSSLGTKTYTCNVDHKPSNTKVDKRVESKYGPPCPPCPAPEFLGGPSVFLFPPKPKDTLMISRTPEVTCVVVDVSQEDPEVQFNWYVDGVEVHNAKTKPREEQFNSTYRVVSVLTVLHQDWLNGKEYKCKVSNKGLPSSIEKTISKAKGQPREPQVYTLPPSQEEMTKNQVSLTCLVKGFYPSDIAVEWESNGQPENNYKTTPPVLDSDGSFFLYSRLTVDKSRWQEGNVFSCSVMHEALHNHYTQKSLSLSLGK
light: DIQMTQSPSSVSASVGDRVTITCLASQTIGAWLAWYQQKPGKSPKLLIYAATRLADGVPSRFSGSGSGTDFTLTISSLQPEDFATYYCQQLDSSPYTFGQGTKVEIKRTVAAPSVFIFPPSDEQLKSGTASVVCLLNNFYPREAKVQWKVDNALQSGNSQESVTEQDSKDSTYSLSSTLTLSKADYEKHKVYACEVTHQGLSSPVTKSFNRGEC
notes: also called 874F7-Hul; humanized antibody 874F7-Hu1
EC50 [1]: 0.22 nM
EC50 [2]: 0.16 nM
EC50 [3]: 0.44 nM
Affinity decline ratio [4]: 1.9 fold
Affinity decline ratio [5]: > 25 fold
Affinity decline ratio [6]: 3.3 fold
EC50 (Human IL-33-his): 0.129 nM
EC50 (read off the curve) [7]: ~1 nM
EC50 (read off the curve) [8]: ~3 nM
